Laboratory results: patent publication US20110293610A1 (published 2011)

T1: TNF-beta (human, UniProt P01374 35-205)
T1 construct: also called TNFβ; Tumour Necrosis Factor-beta
T1 sequence (looked up): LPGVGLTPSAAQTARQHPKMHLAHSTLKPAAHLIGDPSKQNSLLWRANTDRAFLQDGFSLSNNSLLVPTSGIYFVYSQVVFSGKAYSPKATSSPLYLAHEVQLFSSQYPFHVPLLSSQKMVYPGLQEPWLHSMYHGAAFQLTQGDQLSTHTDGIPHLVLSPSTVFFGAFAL

T2: Fas ligand (human, UniProt P48023 134-281, limits assumed)
T2 sequence (looked up): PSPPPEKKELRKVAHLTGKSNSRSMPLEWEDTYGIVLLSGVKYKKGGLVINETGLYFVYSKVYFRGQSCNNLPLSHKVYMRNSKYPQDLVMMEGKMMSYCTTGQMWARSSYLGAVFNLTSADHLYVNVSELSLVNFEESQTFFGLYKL


Assays:
[1] = molecular target: T3, membrane-bound B Lymphocyte Stimulator on U937 plasma membrane preparations (human, UniProt Q9Y275 1-285); assay: phage ELISA
T3 construct: Natural protein in plasma membrane fractions of the human cell line U937 coated on ELISA plates; also called U937 plasma membranes; U937 membranes

[2] = molecular target: T4, HIS-tagged B Lymphocyte Stimulator (human, UniProt Q9Y275 71-285); assay: phage competition ELISA on U937 plasma membranes
T4 construct: Expressed in E. coli from pQE9 and purified; also called histidine-tagged B Lymphocyte Stimulator; HIS-B Lymphocyte Stimulator; not shown: histidine tag of the pQE9 vector
Protocol: (§1) For each test phage antibody, 3 aliquots of 20 μl 18% marvel/6×PBS were transferred into separate wells of a 96-well plate. The first aliquot was supplemented with His-tagged B Lymphocyte Stimulator to a final concentration of 60 μg/ml. The second aliquot was supplemented with soluble B Lymphocyte Stimulator to a final concentration of 60 μg/ml. The third aliquot was not supplemented with any competing antigen. One hundred μl of phage supernatant was then added to each aliquot and left to block at room temperature for 1 hour.
(§2) The antigen-coated plates were washed once with PBS before the addition of 200 μl/well 3% marvel/PBS. These plates were left to block at 37° C. for 1 hour and were then washed once with PBS. Duplicate samples of 50 μl pre-blocked phage (above) were added to the antigen-coated plates and left at room temperature for 1 hour. Plates were washed 3× with PBS/0.1% Tween 20, then 3× with PBS. Fifty μl/well mouse anti-M13 HRP (Pharmacia) at 1/5000 in 3% Marvel/PBS was added and left for 1 hour at room temperature. Plates were washed 3 times with PBS/0.1% Tween 20, then 3 times with PBS. Fifty […] HRP-labelled anti-mouse Envision polymer (DAKO) at 1/50 in 3% marvel/PBS was added and left for 1 hour at RT. Plates were washed 3 times with PBS/0.1% Tween 20, then 3 times with PBS. Next, 50 μl/well of TMB (Sigma) was added and plates left to develop for 30 to 60 minutes. When sufficient color has developed, 25 μl/well 0.5M H₂SO₄ was added to stop the reaction. The plates were read at 450 nm on a microtiter plate reader (Bio-Rad 3550).

[3] = molecular target: T5, B Lymphocyte Stimulator, soluble form (human) (human, UniProt Q9Y275 134-285, biotinylated with NHS-biotin where used as biotinylated B Lymphocyte Stimulator); assay: phage competition ELISA on U937 plasma membranes
T5 construct: Coated on plastic, captured on streptavidin plates, amine-coupled to a CM5 chip or free in solution, depending on the assay; also called BLyS; immobilized B Lymphocyte Stimulator
Protocol: as §1, §2

[4] = molecular target: T5, B Lymphocyte Stimulator, soluble form …; assay: phage competition ELISA on P388 plasma membranes
Protocol: P388 plasma membranes (50 μl per well) were coated at 10 μg/ml in PBS onto Falcon 96-well plates overnight at 4° C. The method is otherwise essentially as described Example 16.

[5] = molecular target: LIGHT (human, UniProt O43557 74-240, limits assumed); assay: phage ELISA
[6] = molecular target: T6, Bovine serum albumin (bovine, UniProt P02769 25-607); assay: phage ELISA
T6 construct: also called BSA

[7] = molecular target: T7, TRAIL (human, UniProt P50591 114-281); assay: phage ELISA
T7 construct: also called TNF-related apoptosis inducing ligand

[8] = molecular target: T1, TNF-beta; assay: phage ELISA
[9] = molecular target: T8, TNF-alpha (human, UniProt P01375 77-233); assay: phage ELISA
T8 construct: also called TNFα; TNF-α

[10] = molecular target: T5, B Lymphocyte Stimulator, soluble form …; assay: purified scFv, inhibition of biotinylated BLyS binding to IM9 cells
Protocol: To a separate 96-well plate, titrate test scFvs in MPBS, in triplicate, over a concentration range from 10 μg/ml down to 0.001 μg/ml were added. The final volume of test scFv in each well was 55 μl. […] Plates were then incubated at room temperature for 30 minutes.
Plates were washed three times in PBST and three times in PBS, tapped dry and 50 μl per well added of streptavidin-Delfia (Wallac) at 1:1000 dilution in the Manufacturer's assay buffer. The plates were then incubated at room temperature for 1 hour and washed six times in Delfia wash solution (Wallac). After tapping the plates dry, 100 μl per well of Delfia enhancement solution (Wallac) was added. The plates were gently tapped to encourage micelle formation, incubated at room temperature for 10 minutes, and fluorescence read on a Wallac 1420 workstation at […].

[11] = molecular target: T2, Fas ligand; assay: phage ELISA
[12] = molecular target: T9, mouse B Lymphocyte Stimulator (mouse, UniProt Q9WU72 127-309, limits assumed); assay: phage ELISA
T9 construct: also called murine B Lymphocyte Stimulator; immobilized mouse B Lymphocyte Stimulator

[13] = molecular target: T5, B Lymphocyte Stimulator, soluble form …; assay: phage competition ELISA

T8 sequence (P01375 77-233 limits assumed): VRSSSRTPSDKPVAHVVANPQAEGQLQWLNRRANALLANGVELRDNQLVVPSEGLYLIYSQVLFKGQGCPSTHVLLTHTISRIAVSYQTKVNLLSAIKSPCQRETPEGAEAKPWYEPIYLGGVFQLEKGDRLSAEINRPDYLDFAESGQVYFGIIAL
T9 sequence (Q9WU72 127-309 limits assumed): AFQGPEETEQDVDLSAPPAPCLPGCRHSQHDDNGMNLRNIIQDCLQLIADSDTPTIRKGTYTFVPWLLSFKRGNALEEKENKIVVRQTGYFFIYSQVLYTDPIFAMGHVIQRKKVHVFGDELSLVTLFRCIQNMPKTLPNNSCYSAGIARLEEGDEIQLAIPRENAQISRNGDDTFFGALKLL
T7 sequence (P50591 114-281 limits assumed): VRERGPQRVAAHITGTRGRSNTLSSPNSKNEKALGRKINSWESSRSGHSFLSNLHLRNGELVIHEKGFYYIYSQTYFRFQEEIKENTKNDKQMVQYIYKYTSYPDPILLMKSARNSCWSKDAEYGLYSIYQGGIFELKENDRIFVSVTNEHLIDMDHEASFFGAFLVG
T6 sequence (P02769 25-607 limits assumed): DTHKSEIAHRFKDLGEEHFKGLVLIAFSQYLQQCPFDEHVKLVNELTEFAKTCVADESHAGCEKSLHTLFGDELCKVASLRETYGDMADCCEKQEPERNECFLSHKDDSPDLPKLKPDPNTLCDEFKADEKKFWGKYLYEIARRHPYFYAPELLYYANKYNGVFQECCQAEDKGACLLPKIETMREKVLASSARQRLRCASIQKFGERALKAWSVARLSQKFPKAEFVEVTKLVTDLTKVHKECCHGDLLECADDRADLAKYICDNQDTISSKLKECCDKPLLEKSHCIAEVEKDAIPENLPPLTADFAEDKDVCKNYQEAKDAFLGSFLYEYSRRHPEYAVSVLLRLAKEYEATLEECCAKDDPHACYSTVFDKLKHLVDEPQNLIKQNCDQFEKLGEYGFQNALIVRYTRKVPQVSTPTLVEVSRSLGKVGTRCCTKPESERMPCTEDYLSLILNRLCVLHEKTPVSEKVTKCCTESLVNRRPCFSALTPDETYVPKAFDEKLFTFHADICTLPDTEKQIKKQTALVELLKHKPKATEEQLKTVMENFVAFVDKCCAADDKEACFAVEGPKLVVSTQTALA
Chain of LIGHT (O43557 74-240 limits assumed): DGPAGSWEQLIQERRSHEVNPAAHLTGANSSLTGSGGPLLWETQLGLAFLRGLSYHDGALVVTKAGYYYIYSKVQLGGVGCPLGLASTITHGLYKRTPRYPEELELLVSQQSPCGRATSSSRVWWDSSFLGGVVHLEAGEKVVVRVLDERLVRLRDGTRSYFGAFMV

Binder	binding result [1]	binding result [2]	binding result [7]	binding result [8]	binding result [9]	IC50 [10] [nM]	binding result [11]	binding result [12]	binding result [3]	further results
I082H08 (scFv) scFv: EVQLVESGGGLVQPGGSLRLSCAASGFTFSDYGMHWVRQRPGKGLEWIAFIGSDGSNKYYGDTVKGRFTISRDNAKNSLYLQMNSLRAEGTAVYYCARDWDMDVWGQGTMVTVSSGGGGSGGGGSGGGGSSHVILTQPRSVSGSPGQSVTISCTGTSSDVGGYHYVSWYQQHPGKAPRLMIYEVTKRPSGVSNRFSGSKSGNTASLTISGVQAEDEADYYCSSYTSASTVIFGGGTKLTVLG										binding result [4]: no binding
I074B12 (scFv) scFv: EVQLVQSGAEVKKPGSSVKVSCRASGGSFNHAISWVRQAPGRGLEWMGGILPMYGTANYAQKFQGRVTITADKLTNTVYMDLSRLRYEDTAVYYCARELGLSIVGATTGALDMWGRGTLVTVSSGGGGSGGGGSGGGGSALSYELTQPPSASGTPGQRVTISCSGSTSNIGSNAVNWYRQLPGTAPKLLVYSNNQVPSGVPDRFSGSKSGTSASLAISGLQSEDEADYYCAAWDDSLSGYVFGTGTQLTVLS			no binding	no binding	no binding	13				binding result [5]: no binding; binding result [6]: no binding
I079E02 (scFv) scFv: QVQLVQSGAEVKKPGSSVKVSCKASGGTFSSYAISWVRQAPGQGLEWMGGIIPIFGTANYAQKFQGRVTITADKSTSTAYMELSSLRSDDTAVYYCARDSGSYYYDAFDIWGKGTMVTVSSGGGGSGGGGSGGGGSDIVMTQSPSTLSASVGDRVTITCRASQGISSWLAWYQQKPGKAPKLLIYAASSLQSGVPSRFSGSGSGTDFTLTISSLQPEDFATYYCQQANSFPLTFGGGTKVEIKR										binding result [4]: no binding
I007F11 (scFv) scFv: GVQLVQSGAEVKKPGASVKVSCKASGYTFTNYGITWVRQTPGQGLEWMGWISAYNGNRNYAQKLQGRVTMTTDTSTSTAYMELRSLRSDDTAVYYCVRDGIDILLVPAALMDVWGQGTMVTVSSGGGGSGGGGSGGGGSQSVLTQPASVSGSPGQSITISCTGTSSDVGGYNYVSWYQQHPGKAPKLMIYEGSKRPSGVSNRFSGSKSGNTASLTISGLQAEDEADYYCSSYTTRSTRVFGGGTKLTVLG			no binding	no binding	no binding	7.9	no binding	no binding		
I080B01 (scFv) scFv: QVQLVQSGAEVKKPGASVKVSCKASGYTFTNYYMHWVRQAPGQGLEWMGIINPRDVSTTYAQKFQGRATMTRDTSTSTVYMELNSLRSEDTAVYYCAREYSGYHYVEGGSYAMDVWGQGTMVTVSSGGGGSGGGGSGGGGSALSYVLTQPPSASGTPGQRVTITCSGSSSNIGNYYVNWYQQVSGTAPKLIIYRNNQRPSGVPDRFSGSKSGASASLAISGLRSEDEADYFCAAWDDSLREFVFGTGTKVTVLG	binds	binds							no binding (tested: 60 µg/ml competing antigen)	
I079F08 (scFv) scFv: QMQLVQSGGGVVQPGRSLRLSCAASGFTFSSYGMHWVRQAPGKGLEWVAVISYDGSIKYYADSVKGRFTISRDNSKNTLYLQMNSLRAEDTAVYYCARYYYHSSGSDAFDIWGQGTLVTVPSGGGGSGGGGSGGGGSQSVLTQPPSASGTPGQRVTISCSGSSSNIGSNTVNWYQRLPGAAPQLLIYNNNQRPSGVPDRFSGSKSGTSASLAISGLQSEDEADYYCAAWDDSLNGWVFGGGTKLTVLG	binds	binds							no binding (tested: 60 µg/ml competing antigen)	

Second part, led by results:

binding result [1]	binding result [2]	binding result [7]	binding result [8]	binding result [9]	IC50 [10] [nM]	binding result [11]	binding result [12]	Binder	binding result [3]	further results
binds	binds							I079B04 (scFv) scFv: EVQLVESGGGLVQPGGSLRLSCAASGFTFSDYAMSWVRQAPGKGLEWVSAISGSGGSTSYADSVKGRFTISRDNSKNTLYLQMNSLRAEDTAVYYCASLLSDYWGRGTTVTVSSGGGGSGGGGSGGGGSQSVLTQPASVSGSPGQSITISCTGTSSDVGGYNYVSWYQQHPGKAPKLMIYEGSKRPSGVSYRFSGSKSGNTASLTISGLQAEDEADYYCSSYTTRSTRVFGGGTKLTVLG	no binding (tested: 60 µg/ml competing antigen)	
		no binding	no binding		17.1	no binding		I050A07 (scFv) scFv: QVQLVQSGAEVKKPGASMKVSCKASAGRASAYGFAMHPIHWVRQAPGQGLEWMGWINGGTGNTKYSEKFLGRVTMTSDTSATTAYMELSSLRSEDTAVYYCARQDNDPLTGYKLGFDYWGKGTLVTVSSGGGGSGGGGSGGGGSAQSVVTQPPSVSGAPGQRVTISCTGSSTNVGAGYGVHWYQQFPETAPKLLIYGGSNRPSGVPDRFSGSQSGTSASLAITGLQAEDEADYYCQSYDTTLSGYVFGTGTKVTVLG		
binds		no binding	no binding	no binding		no binding	no binding	I037E12 (scFv) scFv: EVQLVQSGAEVKKPGASVKVSCKASGYTFTNYGITWVRQAPGQGLEWMGWISAYNGNRNYAQKLQGRVTMTTDTSTSTAYMELRSLRSDDTAVYYCVRDGIDILLVPAALMDVWGKGTLVTVSSGGGGSGGGGSGGGGSQSVLTQPASVSGSPGQSITISCTGTSSDVGGYNYVSWYQQHPGKAPKLMIYEGNKRPSGVSNRFSGSKSGNTASLTISGLQAEDEADYYCSSYTTRSTRVFGGGTKLTVLG		binding result [13]: binds
binds		no binding	no binding	no binding		no binding	no binding	I016H07 (scFv) scFv: GVQLVQSGAEVKKPGASVKVSCKASGYTFTHYAINWLRQAPGQRPEWMGTINTGNGNTKYSQNFQGRLTITRDTSASTVNMELSSLRSEDTAVYYCAGGYHDPLTSYNYNWFDPWGQGTMVTVSSGGGGSGGGGSGGGGSSELTQDPAVSVALGQTVRITCQGDSLRSYYTNWFQQKPGQAPLLVVYAKNKRPSGIPDRFSGSSSGNTASLTITGAQAEDEADYYCHSRDSSGNHVLFGGGTKLTVLG		binding result [13]: binds
